Assay results taken from patent US20220185901A1 (Bayer, published 2022).

T1: hActivin RIA/ALK-2 Fc Chimera (TPP-17233) (human, UniProt Q04771 23-123)
T1 construct: also called human ALK-2-Fc
T1 sequence: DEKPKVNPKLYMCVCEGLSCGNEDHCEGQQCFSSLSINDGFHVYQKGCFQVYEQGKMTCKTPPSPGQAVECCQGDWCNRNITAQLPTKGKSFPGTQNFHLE


Assays:
[1] = target: ALK-1/BMPR-2 receptor pair on PathHunter U2OS ALK-1/BMPR-2 dimerization cells (DiscoverX 93-0962C3) (UniProt P37023 22-503; Q13873 27-1038); assay: cell-based or functional assay
Sequence of ALK-1/BMPR-2 receptor pair on PathHunter U2OS ALK-1/BMPR-2 dimerization cells (DiscoverX 93-0962C3) (P37023 22-503, chain 1 of 2): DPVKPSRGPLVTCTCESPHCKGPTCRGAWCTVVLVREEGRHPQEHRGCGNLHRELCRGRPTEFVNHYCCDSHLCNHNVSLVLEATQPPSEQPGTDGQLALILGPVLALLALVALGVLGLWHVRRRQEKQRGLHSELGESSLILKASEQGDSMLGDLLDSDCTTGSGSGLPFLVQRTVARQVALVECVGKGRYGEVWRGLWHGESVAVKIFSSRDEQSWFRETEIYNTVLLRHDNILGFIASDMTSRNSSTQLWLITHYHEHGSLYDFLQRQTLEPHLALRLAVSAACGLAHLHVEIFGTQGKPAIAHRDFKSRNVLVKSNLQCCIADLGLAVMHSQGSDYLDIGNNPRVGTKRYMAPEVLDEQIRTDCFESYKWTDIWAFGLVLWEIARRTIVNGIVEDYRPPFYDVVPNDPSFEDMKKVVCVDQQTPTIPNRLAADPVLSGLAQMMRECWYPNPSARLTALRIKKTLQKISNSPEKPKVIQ
Sequence of ALK-1/BMPR-2 receptor pair on PathHunter U2OS ALK-1/BMPR-2 dimerization cells (DiscoverX 93-0962C3) (Q13873 27-1038, chain 2 of 2): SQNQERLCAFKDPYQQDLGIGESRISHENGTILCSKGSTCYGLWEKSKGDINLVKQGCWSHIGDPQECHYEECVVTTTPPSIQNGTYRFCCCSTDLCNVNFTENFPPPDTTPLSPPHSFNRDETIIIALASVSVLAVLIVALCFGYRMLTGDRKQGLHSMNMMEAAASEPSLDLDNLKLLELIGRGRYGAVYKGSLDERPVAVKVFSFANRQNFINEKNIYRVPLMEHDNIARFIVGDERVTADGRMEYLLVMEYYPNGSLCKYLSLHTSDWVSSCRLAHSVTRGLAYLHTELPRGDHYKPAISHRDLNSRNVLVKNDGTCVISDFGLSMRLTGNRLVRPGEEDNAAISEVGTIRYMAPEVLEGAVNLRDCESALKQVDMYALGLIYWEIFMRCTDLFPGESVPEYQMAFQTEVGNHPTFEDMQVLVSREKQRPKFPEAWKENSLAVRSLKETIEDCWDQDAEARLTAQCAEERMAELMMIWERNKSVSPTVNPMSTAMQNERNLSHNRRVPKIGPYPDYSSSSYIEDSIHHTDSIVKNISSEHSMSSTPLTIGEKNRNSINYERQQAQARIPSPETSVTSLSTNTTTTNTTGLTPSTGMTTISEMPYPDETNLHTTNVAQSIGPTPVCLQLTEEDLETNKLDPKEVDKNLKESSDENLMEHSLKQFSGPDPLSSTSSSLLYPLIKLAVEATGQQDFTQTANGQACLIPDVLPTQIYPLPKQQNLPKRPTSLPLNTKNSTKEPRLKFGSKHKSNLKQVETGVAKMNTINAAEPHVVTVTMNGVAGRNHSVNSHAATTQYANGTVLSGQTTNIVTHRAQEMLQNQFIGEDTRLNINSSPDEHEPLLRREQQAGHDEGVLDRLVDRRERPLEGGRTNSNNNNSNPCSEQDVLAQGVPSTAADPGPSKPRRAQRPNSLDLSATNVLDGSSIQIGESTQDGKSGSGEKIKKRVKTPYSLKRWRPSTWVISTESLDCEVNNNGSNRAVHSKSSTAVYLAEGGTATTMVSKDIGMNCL

[2] = target: T1, hActivin RIA/ALK-2 Fc Chimera …; assay: ELISA: human ALK-2-Fc coated at 2 µg/ml, TPP-14719 titrated, detected with anti-human IgG2 (Fc specific) then anti-mouse IgG-HRP; readout Relative Fluorescence Units
Experimental: (§1) Antigens human ALK-1-Fc and human ALK-2-Fc were coated at 2 μg/ml and binding of TPP-14696 and TPP-14719 was detected by anti-human IgG2 (Fc specific) antibody (Sigma 19513) followed by anti-mouse IgG (whole molecule)—HRP (Sigma A9044, 1:40000).
(§2) In order to determine the selectivity for the ALK-1/BMPR-2 receptor complex compared to the ALK-2/BMPR-2 receptor, the specificity of the agonistic antibodies has been evaluated by ELISA (FIG. 9). The antigens human ALK-1-Fc and human ALK-2-Fc were coated at 2 μg/ml and binding of TPP-14696 and TPP-14719 was detected by anti-human IgG2 (Fc specific) antibody (Sigma 19513) followed by anti-mouse IgG (whole molecule)—HRP (Sigma A9044, 1:40000).

[3] = target: T2, human ALK-1-Fc (TPP-11726) (human); assay: ELISA: human ALK-1-Fc coated at 2 µg/ml, TPP-14719 titrated, detected with anti-human IgG2 (Fc specific) then anti-mouse IgG-HRP; readout Relative Fluorescence Units
T2 construct: Used for panning, screening and SPR; also called hALK-1-Fc
T2 sequence (chain, as listed by the source limits assumed): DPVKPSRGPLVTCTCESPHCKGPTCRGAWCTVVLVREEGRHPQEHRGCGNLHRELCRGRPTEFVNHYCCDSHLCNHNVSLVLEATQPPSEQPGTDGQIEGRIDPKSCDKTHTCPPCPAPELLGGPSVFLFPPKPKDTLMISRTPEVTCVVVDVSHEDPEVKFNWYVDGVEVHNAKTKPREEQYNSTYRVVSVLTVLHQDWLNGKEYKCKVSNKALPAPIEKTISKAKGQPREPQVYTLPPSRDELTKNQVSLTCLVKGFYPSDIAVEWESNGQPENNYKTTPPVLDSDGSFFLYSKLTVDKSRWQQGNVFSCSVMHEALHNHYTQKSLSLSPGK
Experimental: as §1, §2

[4] = target: T1, hActivin RIA/ALK-2 Fc Chimera …; assay: ELISA: human ALK-2-Fc coated at 2 µg/ml, TPP-14696 titrated, detected with anti-human IgG2 (Fc specific) then anti-mouse IgG-HRP; readout Relative Fluorescence Units
Experimental: as §1, §2

[5] = target: T2, human ALK-1-Fc (TPP-11726); assay: ELISA: human ALK-1-Fc coated at 2 µg/ml, TPP-14696 titrated, detected with anti-human IgG2 (Fc specific) then anti-mouse IgG-HRP; readout Relative Fluorescence Units
Experimental: as §1, §2

| Agonistic activity in PathHunter U2OS cells EC50 [1] | binding result [2] | EC50 [3] | binding result [4] | EC50 [5] | Binder |
| --- | --- | --- | --- | --- | --- |
| 6.9 nM | no binding | 0.747 nM | – | – | TPP-14719 (13660-13469-scFv-kih-IgG2_Fc) (bispecific antibody, scFv-Fc (kih) heterodimer with IgG2 Fc; also called BsAB TPP-14719) chain 1: EVQLLESGGGLVQPGGSLRLSCAASGFTFSSYAMSWVRQAPGKGLEWVANINQDGSEKNYVDSMRGRFTISRDNSKNTLYLQMNSLRAEDTAVYYCAREFDYWGQGTLVTVTSSGGGGSGGGGSGGGGSQSVLAQPPSASGTPGQRVTISCSGSSSNIGSNYVYWYQQLPGTAPKLLIYGNNKRPSGVPDRFSGSKSGTSASLAISGLRSEDEADYYCAAWDDSLNGRVFGGGTKLTVLGGGGSGGGGSGGGGSGVECPPCPAPPVAGPSVFLFPPKPKDTLMISRTPEVTCVVVDVSHEDPEVQFNWYVDGVEVHNAKTKPREEQFNSTFRVVSVLTVVHQDWLNGKEYKCKVSNKGLPAPIEKTISKTKGQPREPQVYTLPPCREEMTKNQVSLWCLVKGFYPSDIAVEWESNGQPENNYKTTPPMLDSDGSFFLYSKLTVDKSRWQQGNVFSCSVMHEALHNHYTQKSLSLSPG chain 2: EVQLLESGGGLVQPGGSLRLSCAASGFTFSDYYMTWIRQAPGKGLEWVSSISGGSTYYADSRKGRFTISRDNSENTLYLQMNSLRAEDTAVYYCARDFGVAGWFGQYGMDVWGQGTLVTVSSGGGGSGGGGSGGGGSQSVLTQPPSASGTPGQRVTISCTGSSSNIGAGYDVHWYQQLPGTAPKLLIYRSNQRPSGVPDRFSGSKSGTSASLAISGLRSEDEADYYCSSYAGNYNLVFGGGTKLTVLGGGGSGGGGSGGGGSGVECPPCPAPPVAGPSVFLFPPKPKDTLMISRTPEVTCVVVDVSHEDPEVQFNWYVDGVEVHNAKTKPREEQFNSTFRVVSVLTVVHQDWLNGKEYKCKVSNKGLPAPIEKTISKTKGQPREPQVCTLPPSREEMTKNQVSLSCAVKGFYPSDIAVEWESNGQPENNYKTTPPMLDSDGSFFLVSKLTVDKSRWQQGNVFSCSVMHEALHNHYTQKSLSLSPG |
| 6.3 nM | – | – | no binding | 1.01 nM | TPP-14696 (13654-13667-scFv-kih-IgG2_Fc) (bispecific antibody, scFv-Fc (kih) heterodimer with IgG2 Fc; also called TPP-14669 (as printed in some places); BsAB TPP-14696) chain 1: EVQLLESGGGLVQPGGSLRLSCAASGFTFSIYAMSWVRQAPGKGLEWVSAISGSGGSTYYADSVKGRFTISRDNSKNTLYLQMNSLRAEDTAVYYCARDFDYWGQGTLVTVTSSGGGGSGGGGSGGGGSQSVLTQPPSASGTPGQRVTISCSGSSSNIGSNYVYWYQQLPGTAPKLLIYGNINRPSGVPDRFSGSKSGTSASLAISGLRSEDEADYYCAAWDDSLNGRVFGGGTKLTVLGGGGSGGGGSGGGGSGVECPPCPAPPVAGPSVFLFPPKPKDTLMISRTPEVTCVVVDVSHEDPEVQFNWYVDGVEVHNAKTKPREEQFNSTFRVVSVLTVVHQDWLNGKEYKCKVSNKGLPAPIEKTISKTKGQPREPQVYTLPPCREEMTKNQVSLWCLVKGFYPSDIAVEWESNGQPENNYKTTPPMLDSDGSFFLYSKLTVDKSRWQQGNVFSCSVMHEALHNHYTQKSLSLSPG chain 2: EVQLLESGGGLVQPGGSLRLSCAASGFTFSNAWMNWVRQAPGKGLEWVSSISSSSSYIYYADSVKGRFTISRDNSKNTLYLQMNSLRAEDTAVYYCARAVAAGGMFWGLDQWGQGTLVTVTSSGGGGSGGGGSGGGGSQSVLTQPPSASGTPGQRVTISCSGSRSNIGSNSVHWYQQLPGTAPKLLIYGNSNRPSGVPDRFSGSKSGTSASLAISGLRSEDEADYYCQSYDSSLNDHVVFGGGTKLTVLGGGGSGGGGSGGGGSGVECPPCPAPPVAGPSVFLFPPKPKDTLMISRTPEVTCVVVDVSHEDPEVQFNWYVDGVEVHNAKTKPREEQFNSTFRVVSVLTVVHQDWLNGKEYKCKVSNKGLPAPIEKTISKTKGQPREPQVCTLPPSREEMTKNQVSLSCAVKGFYPSDIAVEWESNGQPENNYKTTPPMLDSDGSFFLVSKLTVDKSRWQQGNVFSCSVMHEALHNHYTQKSLSLSPG |
